According to the Immune Epitope Database (IEDB):
pIC50, pKd: −log10 of the molar value.

Tests used:
[1] = target: HLA-C*03:03; experiment: IEDB peptide-MHC binding, purified MHC/direct/fluorescence; filed as Kd, often an IC50 or EC50 that approximates it; ≥ and ≤ were set here for values at or beyond the usual limits of such assays
[2] = target: HLA-B*07:02; experiment: as above
[3] = target: HLA-A*11:01; experiment: IEDB peptide-MHC binding, purified MHC/competitive/fluorescence; ≥ and ≤ were set here for values at or beyond the usual limits of such assays
[4] = target: HLA-B*15:01; experiment: IEDB peptide-MHC binding, purified MHC/direct/fluorescence; filed as Kd, often an IC50 or EC50 that approximates it; ≥ and ≤ were set here for values at or beyond the usual limits of such assays
[5] = target: HLA-A*02:01; experiment: as above
[6] = target: HLA-A*31:01; experiment: as above
[7] = target: HLA-A*01:01; experiment: as above
[8] = target: HLA-B*08:01; experiment: as above
[9] = target: HLA-B*08:02; experiment: as above
[10] = target: HLA-A*11:01; experiment: as above
[11] = target: HLA-B*58:01; experiment: as above
[12] = target: HLA-A*03:01; experiment: as above
[13] = target: HLA-B*27:05; experiment: as above
[14] = target: HLA-A*24:02; experiment: as above
[15] = target: HLA-B*46:01; experiment: as above
[16] = target: HLA-A*69:01; experiment: as above
[17] = target: HLA-B*35:01; experiment: IEDB peptide-MHC binding, purified MHC/competitive/fluorescence; filed as Kd, often an IC50 or EC50 that approximates it; ≥ and ≤ were set here for values at or beyond the usual limits of such assays
[18] = target: HLA-B*08:01; experiment: as above
[19] = target: HLA-C*12:03; experiment: IEDB peptide-MHC binding, purified MHC/direct/fluorescence; filed as Kd, often an IC50 or EC50 that approximates it; ≥ and ≤ were set here for values at or beyond the usual limits of such assays
[20] = target: HLA-B*15:17; experiment: as above; conditions: source organism: Giardia lamblia ATCC 50803
[21] = target: HLA-B*57:01; experiment: as above; conditions: source organism: Giardia lamblia ATCC 50803
[22] = target: HLA-B*46:01; experiment: IEDB peptide-MHC binding, purified MHC/competitive/fluorescence; filed as Kd, often an IC50 or EC50 that approximates it; ≥ and ≤ were set here for values at or beyond the usual limits of such assays; conditions: source organism: Giardia lamblia ATCC 50803
[23] = target: HLA-A*01:01; experiment: as above
[24] = target: HLA-B*15:01; experiment: as above; conditions: source organism: Escherichia coli
[25] = target: HLA-A*03:01; experiment: as above; conditions: source organism: Escherichia coli
[26] = target: HLA-B*44:02; experiment: IEDB peptide-MHC binding, purified MHC/direct/fluorescence; filed as Kd, often an IC50 or EC50 that approximates it; ≥ and ≤ were set here for values at or beyond the usual limits of such assays
[27] = target: HLA-B*18:01; experiment: as above
[28] = target: HLA-B*40:01; experiment: as above
[29] = target: HLA-A*26:01; experiment: as above
[30] = target: HLA-B*53:01; experiment: IEDB peptide-MHC binding, purified MHC/competitive/radioactivity; filed as Kd, often an IC50 or EC50 that approximates it; ≥ and ≤ were set here for values at or beyond the usual limits of such assays; conditions: source organism: Dengue virus 3 Martinique/1243/1999
[31] = target: HLA-B*58:01; experiment: as above
[32] = target: HLA-B*57:01; experiment: as above
[33] = target: HLA-A*02:01; experiment: IEDB peptide-MHC binding, purified MHC/competitive/fluorescence; filed as Kd, often an IC50 or EC50 that approximates it; ≥ and ≤ were set here for values at or beyond the usual limits of such assays
[34] = target: HLA-B*39:01; experiment: as above; conditions: source organism: Yersinia pestis Nepal516
[35] = target: HLA-A*68:02; experiment: IEDB peptide-MHC binding, purified MHC/competitive/radioactivity; filed as Kd, often an IC50 or EC50 that approximates it; ≥ and ≤ were set here for values at or beyond the usual limits of such assays; conditions: source organism: Dengue virus 2 Jamaica/1409/1983
[36] = target: HLA-A*68:02; experiment: IEDB peptide-MHC binding, purified MHC/competitive/fluorescence; filed as Kd, often an IC50 or EC50 that approximates it; ≥ and ≤ were set here for values at or beyond the usual limits of such assays; conditions: source organism: Burkholderia mallei GB8 horse 4
[37] = target: HLA-C*05:01; experiment: IEDB peptide-MHC binding, purified MHC/direct/fluorescence; filed as Kd, often an IC50 or EC50 that approximates it; ≥ and ≤ were set here for values at or beyond the usual limits of such assays; conditions: source organism: Vaccinia virus Copenhagen
[38] = source organism: Vaccinia virus Copenhagen
[39] = source organism: Influenza A virus (A/Duck/Shantou/2088/01(H9N2))
[40] = source organism: Mycobacterium tuberculosis C
[41] = source organism: Giardia lamblia ATCC 50803
[42] = source organism: Escherichia coli O157:H7
[43] = source organism: Brucella abortus
[44] = source organism: Brucella suis 1330
[45] = source organism: Francisella tularensis subsp. holarctica LVS
[46] = source organism: Dengue virus 3 Martinique/1243/1999
[47] = source organism: Yersinia pestis Nepal516
[48] = source organism: Escherichia coli F11
[49] = source organism: Dengue virus 2 Jamaica/1409/1983
[50] = source organism: Camelpox virus M-96

AAVKAGASI
pKd ([1]; source organism: Mammarenavirus machupoense): ≥ 9.00 | pKd ([2]; source organism: Mammarenavirus juninense): 5.69

ATLEDDRER
pIC50 ([3]; source organism: Variola virus): 4.31

DRSDGYFLK
pIC50 [3, 38]: 4.50

EEMATKADY
pKd ([4]; source organism: Influenza A virus (A/Puerto Rico/8/34/Mount Sinai(H1N1))): 5.84 | pKd [5, 39]: ≤ 4.70 | pKd [6, 39]: ≤ 4.70 | pKd [7, 39]: ≤ 4.70 | pKd [8, 39]: ≤ 4.70 | pKd ([9]; source organism: Influenza A virus (A/Taiwan/2/2006(H1N1))): ≤ 4.70 | pKd [10, 39]: ≤ 4.70 | pKd [11, 39]: ≤ 4.70 | pKd [12, 39]: ≤ 4.70 | pKd [13, 39]: ≤ 4.70 | pKd [2, 39]: ≤ 4.70 | pKd [14, 39]: ≤ 4.70 | pKd [15, 39]: ≤ 4.70 | pKd [16, 39]: ≤ 4.70

EQFWCGIPY
pKd [4, 40]: 7.10 | pKd [17, 40]: 9.70

EYIWRSLKI
pKd ([14]; source organism: Entamoeba histolytica): ≥ 9.00

FDERRNRYL
pKd ([18]; source organism: Influenza A virus (A/parakeet/Narita/92A/98(H9N2))): ≤ 4.70

FIFPASKVY
pKd ([19]; source organism: Homo sapiens): ≥ 9.00

IASPILFPF
pKd [1, 41]: 8.52 | pKd [20]: 8.82 | pKd [11, 41]: 8.52 | pKd [21]: 7.83 | pKd [19, 41]: 6.23 | pKd [22]: 7.03

ITDITKYLY
pKd ([23]; source organism: Bacillus cereus G9241): 8.68

ITDYIVGYY
pKd [24]: 5.62 | pKd ([23]; source organism: Escherichia coli): 8.52 | pKd [25]: ≤ 4.70

LPPERRQPF
pKd [26, 42]: ≤ 4.70 | pKd [4, 42]: ≤ 4.70 | pKd [5, 42]: ≤ 4.70 | pKd [6, 42]: ≤ 4.70 | pKd [7, 42]: ≤ 4.70 | pKd [27, 42]: ≤ 4.70 | pKd [10, 42]: ≤ 4.70 | pKd [11, 42]: ≤ 4.70 | pKd [12, 42]: ≤ 4.70 | pKd [13, 42]: ≤ 4.70 | pKd [2, 42]: 6.42 | pKd [28, 42]: ≤ 4.70 | pKd [14, 42]: ≤ 4.70 | pKd [15, 42]: ≤ 4.70 | pKd [16, 42]: ≤ 4.70

LSDICSGLQ
pKd ([23]; source organism: Escherichia coli O139:H28 str. E24377A): ≤ 4.70

LTDAFHGYH
pKd [26, 43]: ≤ 4.70 | pKd [4, 43]: ≤ 4.70 | pKd [5, 43]: ≤ 4.70 | pKd [7, 43]: 7.12 | pKd [8, 44]: ≤ 4.70 | pKd [9, 44]: ≤ 4.70 | pKd [27, 43]: ≤ 4.70 | pKd [29, 44]: ≤ 4.70 | pKd [11, 43]: ≤ 4.70 | pKd [12, 43]: ≤ 4.70 | pKd [13, 43]: ≤ 4.70 | pKd [2, 43]: ≤ 4.70 | pKd [28, 43]: ≤ 4.70 | pKd [14, 43]: ≤ 4.70 | pKd [15, 43]: ≤ 4.70

MEVGNTVAF
pKd [27, 45]: ≥ 9.00 | pKd [28, 45]: 8.80 | pKd ([17]; source organism: Francisella tularensis subsp. tularensis FSC198): 6.25

MGITAEWLW
pKd [30]: 8.18 | pKd [31, 46]: 9.36 | pKd [32, 46]: 8.06

MLMAASRAL
pKd [1, 47]: 8.70 | pKd [19, 47]: 6.44 | pKd [17, 47]: 7.33 | pKd [33, 47]: 8.96 | pKd [34]: 8.92 | pKd [18, 47]: 7.40

RTDAWSYPV
pKd [1, 48]: 5.84 | pKd [33, 48]: 9.10 | pKd [23, 48]: 7.87

SDRLHHDPL
pKd [26, 41]: ≤ 4.70 | pKd [4, 41]: ≤ 4.70 | pKd [5, 41]: ≤ 4.70 | pKd [6, 41]: ≤ 4.70 | pKd [7, 41]: ≤ 4.70 | pKd [9, 41]: ≤ 4.70 | pKd [29, 41]: ≤ 4.70 | pKd [10, 41]: ≤ 4.70 | pKd [11, 41]: ≤ 4.70 | pKd [12, 41]: ≤ 4.70 | pKd [13, 41]: ≤ 4.70 | pKd [2, 41]: ≤ 4.70 | pKd [28, 41]: 6.55 | pKd [14, 41]: ≤ 4.70 | pKd [15, 41]: ≤ 4.70 | pKd [16, 41]: ≤ 4.70

STASSWSY
pKd ([23]; source organism: Influenza A virus (A/swine/Ohio/24366/2007(H1N1))): ≤ 4.70

STSTWVTYGT
pKd [35]: 7.14 | pKd [31, 49]: 5.95 | pKd [32, 49]: 6.89

WAWPFAAVL
pKd ([19]; source organism: Burkholderia mallei GB8 horse 4): ≥ 9.00 | pKd [36]: 7.27

YFDDVTAFL
pKd [5, 50]: 8.30 | pKd [37]: 7.85 | pKd [16, 50]: 6.37

YLDYDTIYV
pKd [37]: ≥ 9.00 | pKd [33, 38]: 9.40

YLYASFCTV
pKd [19, 38]: 7.47 | pKd [33, 38]: 8.49
